Usually Kd stands for the constant that tells how readily two partners part at equilibrium.

This assay concerns the target T1, recombinant D III domain of the WNV structural E glycoprotein (West Nile virus; strain of the …, UniProt Q9Q6P4).
T1 construct: also called recombinant DIII protein; recombinant analog of D III of WNV glycoprotein E
The assay is described as follows: BLI; Octet K2, NTA biosensors loaded with recombinant DIII (20 ug/mL); antibodies in solution at five concentrations from 10.4 to 166.4 nM; PBS; global fit of the 1:1 model; triplicate. Conditions: both partners purified. A general note: Biolayer interferometry detects binding as a change in optical thickness at a sensor tip.

T1 sequence (Q9Q6P4 whole entry, looked up, the tested form may be a part): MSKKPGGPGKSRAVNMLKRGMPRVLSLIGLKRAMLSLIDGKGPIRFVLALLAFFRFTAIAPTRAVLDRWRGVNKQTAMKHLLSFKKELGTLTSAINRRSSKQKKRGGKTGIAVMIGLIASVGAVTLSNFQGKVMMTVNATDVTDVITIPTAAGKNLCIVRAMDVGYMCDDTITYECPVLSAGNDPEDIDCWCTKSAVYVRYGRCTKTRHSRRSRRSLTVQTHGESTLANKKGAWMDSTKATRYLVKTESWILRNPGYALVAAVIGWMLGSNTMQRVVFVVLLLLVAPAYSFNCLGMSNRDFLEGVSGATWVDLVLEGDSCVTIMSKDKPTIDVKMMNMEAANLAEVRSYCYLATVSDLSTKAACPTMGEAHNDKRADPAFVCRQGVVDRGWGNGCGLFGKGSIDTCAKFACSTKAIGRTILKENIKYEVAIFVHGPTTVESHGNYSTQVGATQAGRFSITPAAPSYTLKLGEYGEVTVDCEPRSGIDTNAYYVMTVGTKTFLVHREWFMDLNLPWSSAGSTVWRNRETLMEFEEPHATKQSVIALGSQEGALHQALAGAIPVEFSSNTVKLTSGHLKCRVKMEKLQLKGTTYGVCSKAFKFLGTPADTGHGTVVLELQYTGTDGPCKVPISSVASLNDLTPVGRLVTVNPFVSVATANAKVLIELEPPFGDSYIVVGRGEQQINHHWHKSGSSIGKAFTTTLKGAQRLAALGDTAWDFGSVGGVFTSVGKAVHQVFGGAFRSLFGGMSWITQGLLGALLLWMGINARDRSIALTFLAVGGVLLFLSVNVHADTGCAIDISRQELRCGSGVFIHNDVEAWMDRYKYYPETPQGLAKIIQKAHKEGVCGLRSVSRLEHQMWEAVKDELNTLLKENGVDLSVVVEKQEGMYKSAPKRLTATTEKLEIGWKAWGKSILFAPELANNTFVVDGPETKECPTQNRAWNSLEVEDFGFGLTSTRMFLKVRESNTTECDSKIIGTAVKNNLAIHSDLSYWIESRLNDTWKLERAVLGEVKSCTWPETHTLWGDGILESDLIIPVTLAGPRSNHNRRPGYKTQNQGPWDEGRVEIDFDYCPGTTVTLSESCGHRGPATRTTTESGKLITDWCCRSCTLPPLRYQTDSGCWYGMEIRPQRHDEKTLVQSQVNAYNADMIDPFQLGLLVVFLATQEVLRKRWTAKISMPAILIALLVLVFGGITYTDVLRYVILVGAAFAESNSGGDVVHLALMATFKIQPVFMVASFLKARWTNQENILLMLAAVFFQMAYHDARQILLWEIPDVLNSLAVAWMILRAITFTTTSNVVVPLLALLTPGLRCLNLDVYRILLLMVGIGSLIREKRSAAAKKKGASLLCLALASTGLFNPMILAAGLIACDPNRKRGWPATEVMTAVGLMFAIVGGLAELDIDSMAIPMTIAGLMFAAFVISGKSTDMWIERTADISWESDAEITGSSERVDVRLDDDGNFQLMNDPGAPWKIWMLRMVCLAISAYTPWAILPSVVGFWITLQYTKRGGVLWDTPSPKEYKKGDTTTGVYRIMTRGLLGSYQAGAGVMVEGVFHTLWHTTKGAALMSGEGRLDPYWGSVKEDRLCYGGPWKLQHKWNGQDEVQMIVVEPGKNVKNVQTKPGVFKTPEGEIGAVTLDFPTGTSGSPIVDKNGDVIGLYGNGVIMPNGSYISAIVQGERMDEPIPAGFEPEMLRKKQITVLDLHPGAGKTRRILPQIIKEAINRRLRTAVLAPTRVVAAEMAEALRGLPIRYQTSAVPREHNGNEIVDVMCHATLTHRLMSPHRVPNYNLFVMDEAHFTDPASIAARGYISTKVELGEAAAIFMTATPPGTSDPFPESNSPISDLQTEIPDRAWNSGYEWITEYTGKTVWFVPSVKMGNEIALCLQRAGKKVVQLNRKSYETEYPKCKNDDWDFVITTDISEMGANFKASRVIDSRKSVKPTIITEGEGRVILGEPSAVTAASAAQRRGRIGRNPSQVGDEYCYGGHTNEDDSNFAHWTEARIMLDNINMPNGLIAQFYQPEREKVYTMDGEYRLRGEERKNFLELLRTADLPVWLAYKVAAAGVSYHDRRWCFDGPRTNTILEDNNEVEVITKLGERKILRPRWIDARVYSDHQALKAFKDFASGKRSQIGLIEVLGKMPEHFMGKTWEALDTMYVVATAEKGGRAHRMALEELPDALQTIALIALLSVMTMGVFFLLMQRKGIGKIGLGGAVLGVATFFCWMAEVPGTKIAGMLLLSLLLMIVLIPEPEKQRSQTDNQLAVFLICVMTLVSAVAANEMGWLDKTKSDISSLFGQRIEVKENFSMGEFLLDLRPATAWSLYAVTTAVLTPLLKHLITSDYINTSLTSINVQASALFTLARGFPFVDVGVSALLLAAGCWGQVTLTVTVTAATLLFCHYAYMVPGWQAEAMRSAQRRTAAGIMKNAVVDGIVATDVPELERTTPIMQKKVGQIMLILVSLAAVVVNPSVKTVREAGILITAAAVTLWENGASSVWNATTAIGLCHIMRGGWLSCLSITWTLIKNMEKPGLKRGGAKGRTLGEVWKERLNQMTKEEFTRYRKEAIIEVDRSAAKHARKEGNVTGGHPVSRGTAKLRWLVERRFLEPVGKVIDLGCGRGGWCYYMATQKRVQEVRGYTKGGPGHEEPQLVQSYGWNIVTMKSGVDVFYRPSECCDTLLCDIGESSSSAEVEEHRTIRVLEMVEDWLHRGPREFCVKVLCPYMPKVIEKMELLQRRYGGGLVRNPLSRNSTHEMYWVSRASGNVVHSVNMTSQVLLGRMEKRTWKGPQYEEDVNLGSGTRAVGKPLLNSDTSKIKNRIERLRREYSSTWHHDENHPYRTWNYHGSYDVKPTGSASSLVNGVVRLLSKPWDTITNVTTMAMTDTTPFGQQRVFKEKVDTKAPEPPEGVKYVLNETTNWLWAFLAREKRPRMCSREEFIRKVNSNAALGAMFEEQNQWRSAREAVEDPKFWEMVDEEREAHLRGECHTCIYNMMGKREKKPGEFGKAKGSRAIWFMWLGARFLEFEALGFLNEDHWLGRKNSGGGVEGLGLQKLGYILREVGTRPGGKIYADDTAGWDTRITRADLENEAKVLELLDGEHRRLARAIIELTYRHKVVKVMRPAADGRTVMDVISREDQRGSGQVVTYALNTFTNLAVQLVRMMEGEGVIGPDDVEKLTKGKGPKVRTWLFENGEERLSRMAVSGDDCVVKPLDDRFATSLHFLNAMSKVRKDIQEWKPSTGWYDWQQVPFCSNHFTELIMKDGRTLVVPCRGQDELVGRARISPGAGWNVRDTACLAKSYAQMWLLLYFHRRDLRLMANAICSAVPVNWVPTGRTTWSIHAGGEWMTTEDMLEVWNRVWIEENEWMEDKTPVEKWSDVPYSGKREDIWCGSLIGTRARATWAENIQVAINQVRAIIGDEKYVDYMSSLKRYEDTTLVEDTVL

B1: recombinant chimeric monoclonal antibody (mAb) 900, variant V4 (scFv-Fc, M252Y/S254T/T256E and H433K/N434F in the human IgG1 Fc) (antibody, V domains shown)
VH: EVQLQQSGAELVKPGASVKLSCKASGYIFTNYDINWVRQRPEQGLEWIGWIFPEDGRTKNNEKFKGKATLTTDKSSSTAYMQLSRLTSEDSAVYFCARGGGYGNYFDYWGQGTLVTVS
VL: DIVMTQAHKFMSTSVGDRVSITCKASQDVSTAVAWYQQKPGQSPKVLIYWASTRHTGVHDRFTGSGSGTDYTLTISSVQAEDLALYYCQQHYSNPLTFGAGTKLELK
For B1, the Kd was around 2.3 nM.
